These results are taken from the DeepSol protein solubility set.

A short description of the data set: soluble on expression in E. coli; label from the status in PepcDB or PDB records.
With “MGHHHHHHSHMKEPLDGECGKAVVPQQELLDKIKEEPDNAQEYGCVQQPKTQESKLKIGGVSSVNERPIAQQLNPGFQLSFASSGPSVLLPSVPAVAIKVFCSGCKKMLYKGQTAYHKTGSTQLFCSTRCITRHSSPACLPPPPKKTCTNCSKYKILNIPFYFTFF”, the “soluble on expression in E. coli” value is on record as “not soluble”.

Take “MGHHHHHHSHMKVVLSLGGSVLSNESEKIREFAKTIESVAQQNQVFVVVGGGKLAREYIKRARELGASETFCDYIGIAATRLNAMLLISAIPSAAKKVPVDFMEAEELSKLYRVVVMGGTFPGHTTDATAALLAEFIKADVFINATNVDGVYSADPKSDTSAVKYDRLSPQQLVEIVSRSSAKAGTNVVIDLLAAKIIERSKIKTYVIL”: the “soluble on expression in E. coli” value is reported as “soluble”.

“MGHHHHHHSHMLAQPEPLVWVSKWVDYSNKFGFGYQLSSRRVAVLFNDGTHMALSANRKTVHYNPTSTKHFSFSVGAVPRALQPQLGILRYFASYMEQHLMKGGDLPSVEEVEVPAPPLLLQWVKTDQALLMLFSDGTVQVNFYGDHTKLILSGWEPLLVTFVARNRSACTYLASHLRQLGCSPDLRQRLRYALRLLRDRSPA”: the “soluble on expression in E. coli” value was “not soluble”.

As for “MGHHHHHHSHMLIPKTMGKMSPGHVRDLHGSPSHHRPRGPGGKSGFVGWAQGLCAVCSLGTWCPVSQLLQPWLKGANIELGLWLQRVEAPSIGSFHVMLSLWVQRCQELRFGNLCLDFRIYMETPGCPGKSLLQGQSPHGEPLLGQCGREMWGRAPTQSPCWGTA”, the “soluble on expression in E. coli” value is given as “not soluble”.

Take “MGHHHHHHSHMLKKAKMAKDRKSRKKPVEVKKGKDPNAPKRPMSAYMLWLNASREKIKSDHPGISITDLSKKAGEIWKGMSKEKKEEWDRKAEDARRDYEKAMKEYEGGRG”: the “soluble on expression in E. coli” value is listed as “soluble”.

As to “MGHHHHHHSHMLPPPQPGAAGGSGQPRKCSSRRNAWGNLSYADLITRAIESSPDKRLTLSQIYEWMVRCVPYFKDKGDSNSSAGWKNSIRHNLSLHSRFMRVQNEGTGKSSWWIINPDGGKSGKAPRRRAVSMDNSNKYTKSRGRAAKKKA”, the “soluble on expression in E. coli” value is “soluble”.

On to “MGHHHHHHSHMLSRWDDSQRFLSDHPYLVCEETAKYLILWCFHLEAEKKGALMEQIAHQAVVMQFIMEMAKNCNVDPRGCFRLFFQKAKAEEEGYFEAFKNELEAFKSRVRLYSQSQSFQPMTVQNHVPHSGVGSIGLLESLPQNPDYLQYSISTALCSLNSVVHKEDDEPKMMDTV”, for which the “soluble on expression in E. coli” value is “not soluble”.

For the sequence “MGHHHHHHSHMLYVRCGTVGSRMFLVYVSYLINTTIEEKEIVCKCHKDETVTIETVFPFDVAVKFVSTKFEHLERVYADIPFLLMTDLLSASPWALTIVSSELQLAPSMTTVDQLESQVDNVILQTGESASECFCLQCPSLGNIEGGVATGHYIISWKRTSAMENIPIITTVITLPHVIVESIPLHVNADLPSFGRVRESLPVKYHLQNKTDLVQDVEISVEPSDAFMFSGLKQIRLRILPGTEQEMLYNFYPLMAGYQQLPSLNINLLRFPNFTNQLLRRFIPTSIFVKPQGRLMDDTSIAAA”, the “soluble on expression in E. coli” value is listed as “not soluble”.

As for “MGHHHHHHSHMNKILIAAASSGTGKTTVTLGIMHALKKRGLRVQPFKVGPDYIDTNYHQAITGVASINLDSFLIDDDAMLAALFEKHGQSADISVIEGVMGLFDGLGIDRDNSSTSFIAKCTKTPVILVVDGKAISTSAAAIVDGFNRFDPELTIAGVIINRVASENHFSLIKGAIERYTDVPVLGYLPKNAAVALPERHLGLVPKEEMTELETKWEVLGDLIAEHVDLDRLLAISKTG”, the “soluble on expression in E. coli” value is given as “not soluble”.

With “MGHHHHHHSHMRPDCDGWLLLRKAPGGFMGPRWRRRWFVLKGHTLYWYRQPQDEKAEGLINVSNYSLESGHDQKKKYVFQLTHDVYKPFIFAADTLTDLSMWVRHLITCIS”, the “soluble on expression in E. coli” value is “not soluble”.

For “MGHHHHHHSHMSAPIVDAPAAEIVYKIISSDGVVSKMSEKAVQQSKTLSNLIENLGYTIENIETRDPIPVTNVNGKTMAKVAEWCEKHKADAIPEDNMNVLKTLTIPEWDQKFLKIEDEALFDLILASNFLDIKGLMYFGCKTVSNMAKGKTTAELREIFGINTDEQDAAEETAQRAAAEVA”, the “soluble on expression in E. coli” value is “soluble”.

On to “MGHHHHHHSHMSLTTSHFIPFPREMVWDWHTRKGAVARLTPPFIPLNPITQAERLADGTTIFSLPAGLKWVARHDLSGFLNGSRFTDVCLTAPVKALANWRHVHNFVDQDGGTLITDSVSTRLPASTLTGMFAYRQTQLIEDLKF”, for which the “soluble on expression in E. coli” value was “not soluble”.

In the case of “MGHHHHHHSHMVCSPVTVRIAPPDRRFSRSAIPEQIISSTLSSPSSNAPDPCAKETVLSALKEKKKKRTVEEEDQIFLDGQENKRSCLVDGLTDASSAFKVPRPGPDTLQFTVDVFHFANDSRNMIYITCHLKVTLAEQDPDELNKACSFSKPSNSWFPVEGPADICQCCNKGDCGTPSHSRRQPRVVSQWSTSASRNRRHVTEEADVTVGATDLPGQEW”, the “soluble on expression in E. coli” value is “not soluble”.

In the case of “MGHHHHHHSHMVNKNAGETLLQRAARLGYEEVVLYCLENKICDVNHRDNAGYCALHEACARGWLNIVRHLLEYGADVNCSAQDGTRPLHDAVENDHLEIVRLLLSYGADPTLATYSGRTIMKMTHSELMEKFLTDYLN”, the “soluble on expression in E. coli” value is on record as “not soluble”.

As to “MGHHHHHHSHMVTASRYYPQLMSLVGNVLRFLPAFVRMKQLISEHYVGAVMICDARIYSGSLLSPSYGWICDELMGGGGLHTMGTYIVDLLTHLTGRRAEKVHGLLKTFVRQNAAIRGIRHVTSDDFCFFQMLMGGGVCSTVTLNFNMPGAFVHEVMVVGSAGRLVARGADLYGQKNSATQEELLLRDSLAVGAGLPEQGPQDVPLLYLKGMVYMVQALRQSFQGQGDRRTWDRTPVSMAASFEDGLYMQSVVDAIKRSSRSGEWEAVEVLTEEPDTNQNLCEALQRNNL”, the “soluble on expression in E. coli” value is reported as “not soluble”.

“MGHHHHHHSHNCHWTYLKQNRKMAANSSGQGFQNKNRVAILAELDKEKRKLLMQNQSSTNHPGARY”: the “soluble on expression in E. coli” value was “not soluble”.

Consider “MGHHHHHHSHPKGVLPSHYYESFLEKKGPCDRDYKKFWAGLQGLTIYFYNSNRDFQHVEKLNLGAFEKLTDEIPWGSSRDPGTHFSLILRNQEIKFKVETLECREMWKGFILTVVELRVPTDLTLLPGHLYMMSEVLAK”, for which the “soluble on expression in E. coli” value is on record as “not soluble”.

As for “MGHHHHHHSHQQENGSMFSLITWNIDGLDLNNLSERARGVCSYLALYSPDVIFLQEVIPPYYSYLKKRSSNYEIITGHEEGYFTAIMLKKSRVKLKSQEIIPFPSTKMMRNLLCVHVNVSGNELCLMTSHLESTRGHAAERMNQLKMVLKKMQEAPESATVIFAGDTNLRDREVTRCGGLPNNIVDVWEFLGKPKHCQYTWDTQMNSNLGITAACKLRFDRIFFRAAAEEGHIIPRSLDLLGLEKLDCGRFPSDHWGLLCNLDIIL”, the “soluble on expression in E. coli” value was “not soluble”.

With “MGHHHHHHSHVTNLNLATGIINRSSASAPPTLRPIISPSGPTWSTQSDPQAPENHSSSPGSSFI”, the “soluble on expression in E. coli” value is listed as “not soluble”.

With “MGHHHHHHSHYGSLNPKAITISQYGEPFVVGTSRVVEIIRKLRERFGEVRIDIQTNGTLLEPEILGSEADIVMISLDAGSRESYAEITGKDFFERVVKNIEKMSEHTYTVVRTVFMPGINDEELERIAEIASQADELFLQPLSIYRENTELLKRLDVERAESLGDYLQTAYRLSEIASVRIPGCLLLNMRWFLREFEIGEL”, the “soluble on expression in E. coli” value is given as “not soluble”.

Take “MGHHHHHHSHYHVYWLEMVLFYRAHFGTDETILDGKEYDIYVSYARNAEEEEFVLLTLRGVLENEFGYKLCIFDRDSLPGGIVTDETLSFIQKSRRLLVVLSPNYVLQGTQALLELKAGLENMASRGNINVILVQYKAVKETKVKELKRAKTVLTVIKWKGEKSKYPQGRFWKQLQVAMPVKKSPRRSSS”: the “soluble on expression in E. coli” value was “soluble”.

Turning to “MGHKLAFNFNLEINGSDTHSTVDVYLDDSQIITFDGKDIRPTIPFMIGDEIFLPFYKNVFSEFFSLFRRVPTSTPYEDLTYFYECDYTDNKSTFDQFYLYNGEEYTVKTQEATNKNMWLTTSEFRLKKWFDGEDCIMHLRSLVRKMEDSKRNTG”, the “soluble on expression in E. coli” value is “not soluble”.

For the sequence “MGHPPLLPLLLLLHTCVPASWGLRCMQCKTNGDCRVEECALGQDLCRTTIVRLWEEGEELELVEKSCTHSEKTNRTLSYRTGLKITSLTEVVCGLDLCNQGNSGRAVTYSRSRYLECISCGSSDMSCERGRHQSLQCRSPEEQCLDVVTHWIQEGEEGRPKDDRHLRGCGYLPGCPGSNGFHNNDTFHFLKCCNTTKCNEGPILELENLPQNGRQCYSCKGNSTHGCSSEETFLIDCRGPMNQCLVATGTHEPKNQSYMVRGCATASMCQHAHLGDAFSMNHIDVSCCTKSGCNHPDLDVQYRSGAAPQPGPAHLSLTITLLMTARLWGGTLLWT”, the “soluble on expression in E. coli” value was “not soluble”.

For the sequence “MGIKHLNLTVADVVAAREFLEKYFGLTCSGTRGNAFAVMRDNDGFILTLMKGKEVQYPKTFHVGFPQESEEQVDKINQRLKEDGFLVEPPKHAHAYTFYVEAPGGFTIEVMC”, the “soluble on expression in E. coli” value is listed as “soluble”.

Regarding “MGILDHPSSSSGIQSGGGTFGIDWAKWFPPVTSRSFLSHYLPASGALSHTLYTVHLFSPNIISSLFPTGDLAVSNTILFNANVGLGFYVYFRRHLHRVNPWERVEFSVLSSTLFNFGSLLAAVLIKALIPAKSPTWLKSLTATVLSGYLLSRAAKYMGILDHRSSRGSVSPARSVLSRRQTASRSSHAAEVTPPPASYAPETPRSVASTSYYSPSELHLDTTSSVQLETPPQSHESGSFMPMTPSATEHSSSEFGQDLEDAGDRHENYRYLHSYALNNLNHSRPKKETILRRTTMNQKNQLATPQKQLRRSSETMAPMCFVTPEPSWKELDVGVYTPPPSRMDFTPQASKKLTKSSKSVKIIQKKSRRIPNEKDDFDRFLDAVQWHAPLILVPVAFGCWITGSVPILSPTLRFIFA”, the “soluble on expression in E. coli” value is given as “not soluble”.

Turning to “MGILETLVLKEKINGTEKAVIFRELIKKEMELLNDYCAKNHLFPKDYRIEFCHLHNIKKVNIARLLTILKYYDPRFIEILMSTDPKVRTFIQYFMEFLEKHPYFEDVLEPQNLFGNWDYIRYKLKILFPQLTFEEIDRFKFKRKEFINYVKEKLGEPEELIEDKLNLATWYESVPYLELESEMTPGVHPDPVMTPEEWSFIKRHIKGRKNIIIRDPDTGKEKLVYVEVDIPDEELDKYYKNREGLKKLLMERYNIDESGAEQILRKAGWEATGWHIVPPVHTDVEVVYPEEEKKEEKKVEVKREPFDIMELAKHIRYLGGRELEMLNYYELVHDKVPEIHEKLHMFMRTKRRLLGKLFGIYYTVDPVMAEAILINDPENIELLKSLTISTGLRDKKFSIYDSSKVWNEIKRRVRFIFPEVSEEEIEKFKGKRSEFVTYLAQKLGKPEEYIDERLERAGWLRSEEIPAFIRHVGP”, the “soluble on expression in E. coli” value is “not soluble”.

With “MGIMADRLASMVVKATSPDGQIEGELRDRDAVSVAFRGDTYRHYTEYSLGTQLSRLALRMWTGYQRGYDEAVAEATGRPVSRSQETWDANRRRFRQEQAATTVTGMSTDGWIYIQNTGMTSWHVVIRQGTLSKLDEDQFVAELMDAYNTMITEYRFATADLRAKHYGVSFQPRNPPVKELRA”, the “soluble on expression in E. coli” value was “not soluble”.

Take “MGIYEAIQATIKEAMKARDERTLAFARVVKAELDRKGDGKPLPDEEAVKVLKALKEIALEQGNAFEAEFLDRFLPKEMSEEELEAWIREHVDLSQFKNPLAAIGVVTKALGPKAPGEKVRKVIERLTR”: the “soluble on expression in E. coli” value is listed as “soluble”.
